In patent US20240239915A1 (Zymeworks, published 2024):
Where two headings read alike, the source gives them in different places.

How the values were obtained:
[1] = target: T1, human FcRn (human neonatal Fc receptor large subunit p51 and beta2-microglobulin), biotinylated (human, UniProt P55899 24-297; P61769 21-119, biotinylated (site not stated)); test: BLI (Octet RED384), biotinylated FcRn on streptavidin biosensor, binding at pH 6.0, dissociation at pH 7.4
[2] = target: T1, human FcRn (human neonatal Fc receptor …); test: BLI (Octet RED384), biotinylated FcRn on streptavidin biosensor, binding and dissociation at pH 6.0
[3] = target: T2, Recombinant Human Fc gamma RIIB/C (CD32b/c) Protein (R&D Systems), His-tagged (human, UniProt P31994 46-217); test: SPR (Biacore T200); receptor immobilized directly on CM5 chip, antibody as analyte at 4.7 µM
T2 construct: also called human FcγRIIb/c; hFcγRIIb/c
T2 sequence: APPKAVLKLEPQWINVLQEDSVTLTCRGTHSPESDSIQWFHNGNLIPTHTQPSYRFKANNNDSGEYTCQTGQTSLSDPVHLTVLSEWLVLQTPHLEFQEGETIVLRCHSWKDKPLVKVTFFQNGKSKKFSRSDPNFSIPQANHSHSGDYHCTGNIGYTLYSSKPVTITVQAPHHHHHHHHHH

[4] = target: T3, Recombinant Human Fc gamma RIIIB/CD16b Protein (R&D Systems), His-tagged (human, UniProt O75015 20-208); test: as above
T3 construct: also called human FcγRIIIb; hFcγRIIIb
T3 chain: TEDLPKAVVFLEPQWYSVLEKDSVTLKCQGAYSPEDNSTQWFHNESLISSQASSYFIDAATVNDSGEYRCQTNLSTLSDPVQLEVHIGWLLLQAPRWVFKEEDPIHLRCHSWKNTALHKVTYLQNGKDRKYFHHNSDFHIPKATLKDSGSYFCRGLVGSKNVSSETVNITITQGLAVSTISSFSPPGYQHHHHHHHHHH

[5] = target: T4, Recombinant Human Fc gamma RIIA/CD32a (H167) Protein (R&D Systems), His-tagged (human, UniProt P12318 34-218); test: as above
T4 construct: also called human FcγRIIa (H167); hFcγRIIa (H167)
T4 sequence: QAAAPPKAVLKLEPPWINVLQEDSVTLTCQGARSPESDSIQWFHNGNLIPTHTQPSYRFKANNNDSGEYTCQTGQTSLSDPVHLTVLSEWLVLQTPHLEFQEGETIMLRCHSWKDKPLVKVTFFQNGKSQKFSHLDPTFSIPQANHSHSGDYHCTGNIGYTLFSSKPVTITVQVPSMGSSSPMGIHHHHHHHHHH

[6] = target: T5, Recombinant Human Fc gamma RIIIA/CD16a protein (R&D Systems), His-tagged (human, UniProt P08637 17-208); test: as above
T5 construct: also called human FcγRIIIa; hFcγRIIIa

[7] = target: T6, Recombinant Human Fc gamma RIIIA/CD16a (V176F) Protein (R&D Systems), His-tagged (human, UniProt P08637 17-208); test: as above
T6 construct: no further substitution applied; also called human FcγRIIIa (V176F); hFcγRIIIa (V176F)

[8] = target: T7, Recombinant Cynomolgus Monkey Fc gamma RI/CD64 Protein, CF (R&D Systems), His-tagged (cynomolgus, UniProt P12314 11-288 (human entry)); test: SPR (Biacore T200); His-tagged receptor captured on anti-His antibody chip, antibody as analyte at 4.7 µM
T7 construct: also called cynomolgus FcγRI; cFcγRI
T7 chain: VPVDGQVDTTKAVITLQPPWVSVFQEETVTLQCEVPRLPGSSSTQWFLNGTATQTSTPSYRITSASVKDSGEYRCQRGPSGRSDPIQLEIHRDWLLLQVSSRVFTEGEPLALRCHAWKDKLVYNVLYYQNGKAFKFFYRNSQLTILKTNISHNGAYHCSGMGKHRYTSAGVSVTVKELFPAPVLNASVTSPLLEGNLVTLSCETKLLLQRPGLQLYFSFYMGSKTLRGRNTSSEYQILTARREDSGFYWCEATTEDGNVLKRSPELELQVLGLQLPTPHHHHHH

[9] = target: T8, Recombinant Cynomolgus Fc gamma RIIB protein (R&D Systems), His-tagged (cynomolgus); test: SPR (Biacore T200); receptor immobilized directly on CM5 chip, antibody as analyte at 4.7 µM
T8 construct: also called cynomolgus FcγRIIb; cFcγRIIb
T8 chain: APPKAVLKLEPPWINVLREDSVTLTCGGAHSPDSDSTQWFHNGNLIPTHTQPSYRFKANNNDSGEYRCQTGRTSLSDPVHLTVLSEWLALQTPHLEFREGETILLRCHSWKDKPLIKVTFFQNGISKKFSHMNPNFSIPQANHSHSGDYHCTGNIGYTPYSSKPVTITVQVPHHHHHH

[10] = target: T9, Recombinant Cynomolgus Fc gamma RIIA/CD32a Protein (R&D Systems), His-tagged (cynomolgus); test: as above
T9 construct: also called cynomolgus FcγRIIa; cFcγRIIa
T9 chain: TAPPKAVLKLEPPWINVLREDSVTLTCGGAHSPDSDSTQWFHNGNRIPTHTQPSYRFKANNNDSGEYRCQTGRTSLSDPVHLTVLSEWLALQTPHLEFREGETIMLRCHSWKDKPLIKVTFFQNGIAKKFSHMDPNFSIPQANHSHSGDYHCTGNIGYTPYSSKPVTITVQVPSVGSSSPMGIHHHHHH

[11] = target: T10, Recombinant Cynomolgus Fc gamma RIII/CD16 Protein (R&D Systems), His-tagged (cynomolgus, UniProt Q8SPW2 17-208); test: as above
T10 construct: also called cynomolgus FcγRIII; cFcγRIII
T10 chain: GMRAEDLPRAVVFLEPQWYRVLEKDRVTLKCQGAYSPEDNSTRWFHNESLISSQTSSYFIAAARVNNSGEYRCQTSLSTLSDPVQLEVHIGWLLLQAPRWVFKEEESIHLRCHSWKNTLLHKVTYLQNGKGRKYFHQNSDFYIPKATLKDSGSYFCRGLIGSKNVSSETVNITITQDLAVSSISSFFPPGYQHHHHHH

[12] = target: T2, Recombinant Human Fc gamma RIIB/C …; test: as above; remark: listed apart in the source
[13] = target: T3, Recombinant Human Fc gamma RIIIB/CD16b …; test: as above
[14] = target: T4, Recombinant Human Fc gamma RIIA/CD32a …; test: as above; remark: listed apart in the source
[15] = target: T5, Recombinant Human Fc gamma RIIIA/CD16a …; test: as above; remark: listed apart in the source
[16] = target: T6, Recombinant Human Fc gamma RIIIA/CD16a …; test: as above; remark: listed apart in the source
[17] = target: T8, Recombinant Cynomolgus Fc gamma RIIB …; test: as above
[18] = target: T9, Recombinant Cynomolgus Fc gamma …; test: as above
[19] = target: T10, Recombinant Cynomolgus Fc gamma …; test: as above
[20] = target: T3, Recombinant Human Fc gamma RIIIB/CD16b …; test: as above

T6 sequence (P08637 other isoform, or with tags, fused parts or gaps V176F V176F): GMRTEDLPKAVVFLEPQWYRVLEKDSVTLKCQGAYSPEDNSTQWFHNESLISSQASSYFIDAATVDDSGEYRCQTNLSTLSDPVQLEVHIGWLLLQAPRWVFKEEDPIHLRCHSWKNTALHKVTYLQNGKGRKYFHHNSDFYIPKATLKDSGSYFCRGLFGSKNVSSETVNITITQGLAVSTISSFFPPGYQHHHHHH
T5 sequence (P08637 other isoform, or with tags, fused parts or gaps): as the sequence (P08637 other isoform, or with tags, fused parts or gaps V176F V176F) above, with F160V counted along it
T1 sequence (P55899 24-297 limits assumed, chain 1 of 2): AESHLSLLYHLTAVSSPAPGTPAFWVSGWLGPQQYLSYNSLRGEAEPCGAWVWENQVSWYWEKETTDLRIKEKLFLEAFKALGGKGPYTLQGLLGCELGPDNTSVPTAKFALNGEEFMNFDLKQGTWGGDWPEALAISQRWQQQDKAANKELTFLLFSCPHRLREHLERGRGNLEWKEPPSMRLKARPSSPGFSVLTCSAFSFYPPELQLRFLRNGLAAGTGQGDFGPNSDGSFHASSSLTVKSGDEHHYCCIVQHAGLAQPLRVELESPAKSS
T1 sequence (P61769 21-119 limits assumed, chain 2 of 2): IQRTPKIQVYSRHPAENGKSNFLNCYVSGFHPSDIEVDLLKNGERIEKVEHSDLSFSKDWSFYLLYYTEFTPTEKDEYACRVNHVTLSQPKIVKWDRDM

B1: L234A/L235A/D265G/P329A (LALA-DGPA) variant of IgG1 WT of the anti-EGFR antibody panitumumab (antibody)
heavy: QVQLQESGPGLVKPSETLSLTCTVSGGSVSSGDYYWTWIRQSPGKGLEWIGHIYYSGNTNYNPSLKSRLTISIDTSKTQFSLKLSSVTAADTAIYYCVRDRVTGAFDIWGQGTMVTVSSASTKGPSVFPLAPSSKSTSGGTAALGCLVKDYFPEPVTVSWNSGALTSGVHTFPAVLQSSGLYSLSSVVTVPSSSLGTQTYICNVNHKPSNTKVDKRVEPKSCDKTHTCPPCPAPEAAGGPSVFLFPPKPKDTLMISRTPEVTCVVVGVSHEDPEVKFNWYVDGVEVHNAKTKPREEQYNSTYRVVSVLTVLHQDWLNGKEYKCKVSNKALAAPIEKTISKAKGQPREPQVYTLPPSREEMTKNQVSLTCLVKGFYPSDIAVEWESNGQPENNYKTTPPVLDSDGSFFLYSKLTVDKSRWQQGNVFSCSVMHEALHNHYTQKSLSLSPGK
light: not shown
notes: Positions are EU numbers
[1]
  koff: 2.3 s⁻¹
[2]
  Kd: 5 nM

B2: L234A/L235A/P329G (LALA-PG) variant of IgG1 WT of the anti-EGFR antibody panitumumab (antibody)
heavy: QVQLQESGPGLVKPSETLSLTCTVSGGSVSSGDYYWTWIRQSPGKGLEWIGHIYYSGNTNYNPSLKSRLTISIDTSKTQFSLKLSSVTAADTAIYYCVRDRVTGAFDIWGQGTMVTVSSASTKGPSVFPLAPSSKSTSGGTAALGCLVKDYFPEPVTVSWNSGALTSGVHTFPAVLQSSGLYSLSSVVTVPSSSLGTQTYICNVNHKPSNTKVDKRVEPKSCDKTHTCPPCPAPEAAGGPSVFLFPPKPKDTLMISRTPEVTCVVVDVSHEDPEVKFNWYVDGVEVHNAKTKPREEQYNSTYRVVSVLTVLHQDWLNGKEYKCKVSNKALGAPIEKTISKAKGQPREPQVYTLPPSREEMTKNQVSLTCLVKGFYPSDIAVEWESNGQPENNYKTTPPVLDSDGSFFLYSKLTVDKSRWQQGNVFSCSVMHEALHNHYTQKSLSLSPGK
light: not shown
notes: Mutations in both CH2 domains; positions are EU numbers
[3]
  binding response (RU): 19 RU
[4]
  binding response (RU): -0.4 RU
[5]
  binding response (RU): 19 RU
[6]
  binding response (RU): -0.7 RU
[7]
  binding response (RU): -0.8 RU
[8]
  binding response (RU): 1300 RU
[9]
  binding response (RU): 110 RU
[10]
  binding response (RU): 23 RU
[11]
  binding response (RU): 10 RU

B3: L234A/L235A/D265N (LALA-DN) variant of IgG1 WT of the anti-EGFR antibody panitumumab (antibody)
heavy: QVQLQESGPGLVKPSETLSLTCTVSGGSVSSGDYYWTWIRQSPGKGLEWIGHIYYSGNTNYNPSLKSRLTISIDTSKTQFSLKLSSVTAADTAIYYCVRDRVTGAFDIWGQGTMVTVSSASTKGPSVFPLAPSSKSTSGGTAALGCLVKDYFPEPVTVSWNSGALTSGVHTFPAVLQSSGLYSLSSVVTVPSSSLGTQTYICNVNHKPSNTKVDKRVEPKSCDKTHTCPPCPAPEAAGGPSVFLFPPKPKDTLMISRTPEVTCVVVNVSHEDPEVKFNWYVDGVEVHNAKTKPREEQYNSTYRVVSVLTVLHQDWLNGKEYKCKVSNKALPAPIEKTISKAKGQPREPQVYTLPPSREEMTKNQVSLTCLVKGFYPSDIAVEWESNGQPENNYKTTPPVLDSDGSFFLYSKLTVDKSRWQQGNVFSCSVMHEALHNHYTQKSLSLSPGK
light: not shown
notes: as for B2
[12]
  binding response (RU): 14 RU
[13]
  binding response (RU): -1 RU
[14]
  binding response (RU): 21 RU
[15]
  binding response (RU): -3.3 RU
[16]
  binding response (RU): -5 RU
[17]
  binding response (RU): 85 RU
[18]
  binding response (RU): 19 RU
[19]
  binding response (RU): 3.1 RU

B4: LALA variant of the anti-LPS antibody O11-1111 (IgG1) (antibody)
heavy: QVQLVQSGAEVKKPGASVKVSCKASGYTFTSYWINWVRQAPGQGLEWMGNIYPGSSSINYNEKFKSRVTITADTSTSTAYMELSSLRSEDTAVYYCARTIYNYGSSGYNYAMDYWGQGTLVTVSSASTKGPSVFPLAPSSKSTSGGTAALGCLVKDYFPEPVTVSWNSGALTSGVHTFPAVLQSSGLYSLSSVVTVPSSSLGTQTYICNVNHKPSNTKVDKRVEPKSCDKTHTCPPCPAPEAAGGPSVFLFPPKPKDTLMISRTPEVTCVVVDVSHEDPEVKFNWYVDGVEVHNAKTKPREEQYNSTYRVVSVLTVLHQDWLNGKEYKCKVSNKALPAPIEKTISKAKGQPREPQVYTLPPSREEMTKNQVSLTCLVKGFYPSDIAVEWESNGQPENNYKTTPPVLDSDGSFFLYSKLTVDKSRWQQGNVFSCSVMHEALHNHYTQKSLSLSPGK
light: DIVMTQSPDSLAVSLGERATINCKASENVGNSVSWYQQKPGQPPKLLIYGASNRYTGVPDRFSGSGSGTDFTLTISSLQAEDVAVYYCGQSYSYPYTFGQGTKVEIKRTVAAPSVFIFPPSDEQLKSGTASVVCLLNNFYPREAKVQWKVDNALQSGNSQESVTEQDSKDSTYSLSSTLTLSKADYEKHKVYACEVTHQGLSSPVTKSFNRGEC
notes: LALA substitutions in EU numbering; also called Anti-LPS Antibody LALA
[20]
  binding response (RU): -1.4 RU
